Assay results taken from article PMC10522489, “Eukaryotic-like gephyrin and cognate membrane receptor coordinate corynebacterial cell division and polar elongation” (Nature Microbiology, 2023).

B1: Glp (gephyrin-like protein, Cgl0883), untagged (natural protein, Corynebacterium glutamicum ATCC13032, UniProt Q8NS03 1-419, looked up)
chain: MRSVEQQLSIVTEAAVAPEPVRIAIAEALGLMCAEEVQASRALPGFAQAAIDGYAVRAVDVGGEKSLSQQLPVAPPEKSLPVVGEVAAGSQQPLRLQPKQAVMVHTGAPLPMLADAVLPMAWSDRGRKRVTAQRPVRSGEFVRKEGDDIQPGDIAVSAGAVLGPAQIGLLAAVGRSKVLVYPRPRMSVISVGAELVDIDRQPGLGQVYDVNSYSLAAAGREAGADVYRYGIAAGEPRRIKEIIESQMLRSEIIVITGAVGGAGSAGVRQVLNELGDIDTERVAMHPGSVQGFGLLGENKIPCFLLPSNPVASLVIFETFVRPVVRMSLGKSNAARRVVRARALNHVVSVAGRKGFIRSRLMRDAETQDYLVEALGGATGAPSHLLAGLSEANGMIRIPEDVTEIRPGDVVDVIFLAQGR
notes: Glp (gephyrin-like protein, annotated molybdopterin molybdotransferase MoeA), Corynebacterium glutamicum ATCC13032, locus Cgl0883; Homodimer in the crystal structures; Called 'untagged Glp' in the BLI on GlpR; also called gephyrin-like repurposed molybdotransferase; MoeA paralogue; source: E. coli BL21 (DE3), purified (Ni-NTA, SUMO protease, SEC); not shown: His6, N-terminal, cleaved; SUMO, …

How the values were obtained:
[1] = target: Biotinylated His-GlpR (Corynebacterium glutamicum ATCC13032); experiment: BLI; biotinylated GlpR immobilised on streptavidin biosensors; Wag31 150–2.34 μM in buffer A (20 mM HEPES pH 8.5, 150 mM NaCl, DDM 0.05%); 25 °C; apparent Kd from steady-state fit, one-site model
[2] = target: Biotinylated His-GlpR (Corynebacterium glutamicum ATCC13032); experiment: BLI; biotinylated GlpR immobilised on streptavidin biosensors; Wag31 1-61 (DivIVA) 200–3.15 μM in buffer B (25 mM HEPES pH 7.5, 150 mM NaCl, 10% glycerol, 0.05% DDM, 1 mg/ml BSA); 25 °C; apparent Kd from steady-state fit, one-site model
His-SUMO-FtsZ = target: T1, His-SUMO-FtsZ (Corynebacterium glutamicum, UniProt P94337 1-442); experiment: BLI; His-SUMO-FtsZ immobilised on Ni-NTA biosensors; Glp 80–1.25 μM in 2-fold dilutions; polymerization buffer (25 mM Pipes pH 6.9, 100 mM KCl, 10 mM MgCl2); 25 °C; apparent Kd from steady-state fit, one-site model; conditions: both partners purified
T1 construct: FtsZ, tubulin-like cell division protein, Corynebacterium glutamicum; Captured on Ni-NTA biosensors; also called 6xHis-SUMO-FtsZ; immobilized SUMO-FtsZ; source: E. coli BL21 (DE3), purified (Ni-NTA, SEC); not shown: His6, N-terminal, kept; SUMO, N-terminal, kept
T1 sequence (looked up): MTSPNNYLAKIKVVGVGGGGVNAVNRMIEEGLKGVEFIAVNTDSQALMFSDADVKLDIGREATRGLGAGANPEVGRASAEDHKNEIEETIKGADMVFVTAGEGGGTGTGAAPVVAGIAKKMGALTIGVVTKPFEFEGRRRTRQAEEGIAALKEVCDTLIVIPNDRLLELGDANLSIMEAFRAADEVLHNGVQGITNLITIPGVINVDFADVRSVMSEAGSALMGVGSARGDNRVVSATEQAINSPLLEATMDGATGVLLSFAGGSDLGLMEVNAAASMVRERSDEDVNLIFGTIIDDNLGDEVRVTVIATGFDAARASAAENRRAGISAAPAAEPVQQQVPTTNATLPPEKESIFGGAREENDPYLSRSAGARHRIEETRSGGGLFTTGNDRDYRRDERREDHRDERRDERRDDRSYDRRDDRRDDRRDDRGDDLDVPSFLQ

[3] = target: the molecule itself; experiment: crystal structure; 0.34 mM Glp with 1.7 mM FtsZCTD peptide; 0.1 M NaCl, 0.1 M Bis-Tris pH 6.5, 1.5 M (NH4)2SO4; 2.7 Å
[4] = target: B1; experiment: differential scanning fluorescence (thermofluor); Glp 3 μg in 25 mM HEPES pH 8, 150 mM NaCl, 5% glycerol with or without 1 mM FtsZCTD; Sypro Orange; 25 to 95 °C; conditions: both partners purified
[5] = target: B1; experiment: BLI; C-terminal His-tagged GlpR immobilised on Ni-NTA biosensors; untagged Glp variants (Glp 100–1.56 nM) in 25 mM HEPES pH 7.5, 150 mM NaCl, 10% glycerol, 0.05% DDM, 1 mg/ml BSA; 25 °C; apparent Kd from steady-state fit; conditions: both partners purified

Wag31, full length (natural protein)
Kd [1]: 43.4 µM

Wag31_(1–61) (N-terminal DivIVA domain of Wag31) (domain or fragment)
Kd [2]: 14.9 µM

B1
Kd (His-SUMO-FtsZ): 4.7 ± 0.77 µM
stoichiometry N [3]: 2

B2: FtsZCTD peptide (peptide)
peptide: DDLDVPSFLQ
notes: C-terminal 10 residues of FtsZ, Corynebacterium glutamicum; also called 10-residue peptide FtsZCTD; C-terminal domain of FtsZ; source: synthetic peptide, bought: Genosphere
Tm shift of Glp [4]: 2 °C

B3: GlpR (Glp receptor, Cgl0885), C-terminal His tag (receptor, Corynebacterium glutamicum ATCC13032, UniProt Q8NS01 1-340, looked up)
chain: MLHVSGILVIGLIVVVWLVVLAPLLLRGQKPIAKAGEAFDDTRVISEGGSNIPSPRRPGLSSAQLDDEEDTDDVDDDYEIVDSPSIFRPRKEEPVEEDLDTDVELEEDIEVSLETDDYVEPAPVVEVSQEWNVEDHYELDDSYDTPLDHLHPAARARAYEDFQEHQPEQQPEVEEFDADDELTEEDVAFAQRRRGRGYYDPEADREFAASQYVRRQRTLLGLAATVVISVILGFVFGGWVWGLPAVALAATALYLMALRSQVREENALRARRIRRLRRSRMGVRNSEDLPSRLRRPGAVVLELDDESPDFEGLPTVAMPEEPYYEEPRRNIRHLGQRRVS
notes: GlpR, integral membrane protein with 3 predicted transmembrane helices, Corynebacterium glutamicum ATCC13032, locus Cgl0885; In 0.05% DDM; also called C-terminal His-tagged GlpR; immobilized GlpR; source: E. coli BL21 (DE3), purified from membranes in DDM (Ni-NTA, SEC); not shown: His6, C-terminal, kept
Kd [5]: 0.0055 ± 0.00075 µM
